The source of these data is patent US20190175730A1 (Five Prime, published 2019).

This assay addresses T1, human FGFR2IIIb expressed on Ba/F3 cells (human, UniProt P21802 22-821).
T1 chain: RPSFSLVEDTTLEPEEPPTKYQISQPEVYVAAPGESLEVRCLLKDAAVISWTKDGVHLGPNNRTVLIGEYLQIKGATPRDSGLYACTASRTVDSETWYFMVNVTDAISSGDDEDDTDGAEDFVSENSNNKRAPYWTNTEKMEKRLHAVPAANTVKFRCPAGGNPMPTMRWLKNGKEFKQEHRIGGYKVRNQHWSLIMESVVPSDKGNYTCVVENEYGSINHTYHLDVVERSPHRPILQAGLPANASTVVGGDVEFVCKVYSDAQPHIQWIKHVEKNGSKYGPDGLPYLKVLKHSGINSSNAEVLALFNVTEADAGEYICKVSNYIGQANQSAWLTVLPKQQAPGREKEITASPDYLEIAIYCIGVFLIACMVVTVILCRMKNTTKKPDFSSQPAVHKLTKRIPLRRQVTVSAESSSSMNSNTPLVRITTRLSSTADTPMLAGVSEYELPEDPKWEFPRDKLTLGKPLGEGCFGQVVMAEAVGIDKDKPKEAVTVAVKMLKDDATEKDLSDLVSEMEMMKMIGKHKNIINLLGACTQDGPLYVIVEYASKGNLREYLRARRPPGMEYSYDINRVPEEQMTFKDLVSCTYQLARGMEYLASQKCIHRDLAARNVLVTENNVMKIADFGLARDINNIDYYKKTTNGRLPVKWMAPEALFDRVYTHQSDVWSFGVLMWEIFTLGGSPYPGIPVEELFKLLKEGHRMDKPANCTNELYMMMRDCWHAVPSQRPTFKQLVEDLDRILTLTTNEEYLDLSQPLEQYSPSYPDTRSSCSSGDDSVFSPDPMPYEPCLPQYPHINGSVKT
The experiment in a line: cell-based or functional assay.

B1: afucosylated monoclonal antibody αFGFR2bA (antibody, human IgG1, kappa)
heavy: not shown
light: DIQMTQSPSSLSASVGDRVTITCKASQGVSNDVAWYQQKPGKAPKLLIYSASYRYTGVPSRFSGSGSGTDFTFTISSLQPEDIATYYCQQHSTTPYTFGQGTKLEIKRTVAAPSVFIFPPSDEQLKSGTASVVCLLNNFYPREAKVQWKVDNALQSGNSQESVTEQDSKDSTYSLSSTLTLSKADYEKHKVYACEVTHQGLSSPVTKSFNRGEC
modifications: Asn297 glycan lacks fucose (afucosylated; produced in FUT8-lacking Potelligent CHOK1SV cells)
Turning to B1, the “EC50 (ng/mL) of ADCC, LDH release” value was 2 ng/mL.

B2: fucosylated monoclonal antibody αFGFR2bF (antibody, human IgG1, kappa)
heavy: not shown
light: B1 light
modifications: Asn297 glycan contains fucose (fucosylated)
In the case of B2, the “EC50 (ng/mL) of ADCC, LDH release” value turned out to be 16 ng/mL.
